± gives the uncertainty stated by the source.

The data set in a line: self-splicing fitness, log relative to wild type (ln ratio); higher = more splicing; Tetrahymena group I intron in knt gene, E. coli kanamycin selection, DiMSum; sequences stand for … in CUCUCU…GGAGGGAAAAGUUAUCAGGCAUGCACCUGGUAGCUAGUCUUUAAACCAAUAGAUUGCAUCGGUUUAAAAGGCAAGACCGUCAAAUUGCGGGAAAGGGGUCAACAGCCGUUCAGUACCAAGUCUCAGGGGAAACUUUGAGAUGGCCUUGCAAAGGGUAUGGUAAUAAGCUGACGGACAUGGUCCUAACCACGCAGCCAAGUCCUAAGUCAACAGAUCUUCUGUUGAUAUGGAUGCAGUUCACAGACUAAAUGUCGGUCGGGGAAGAUGUAUUCUUCUCAUAAGAUAUAGUCGGACCUCUCCUUAAUGGGAGCUAGCGGAUGAAGUGAUGCAACACUGGAGCCGCUGGGAACUAAUUUGUAUGCGAAAGUAUAUUGAUUAGUUUUGGAGUACUCGUGGUCG
The method in brief:
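Library with all eight P1ex-region intron nucleotides randomised, intron inside the knt kanamycin-resistance gene on pET-22b(+), in E. coli BL21(DE3). Cells grew overnight at 37°C or 30°C on LB agar with or without 25 μg/mL kanamycin (plus 100 μg/mL carbenicillin, 50 μM IPTG, 0.2% rhamnose), in six replicate transformations. Pooled colonies were amplicon-sequenced on Illumina HiSeq 2500. DiMSum fitness is the error-weighted combination of wild-type-normalised replicate fold changes, kanamycin versus none.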

GAGGAGCAAUAUUACGGUCG: the “self-splicing fitness (ln)” value (30 °C) is -1.43 ± 0.14 and the “self-splicing fitness (ln)” value (37 °C) was -2.19 ± 0.29. As to AUCGAGCAAUAUUACGUCUU, the “self-splicing fitness (ln)” value is -2.79 ± 0.12 (30 °C) and -1.41 ± 0.12 (37 °C). On the same counts, the results for GUAAAGCAAUAUUACGACGG are -3.85 ± 0.29 and -2.28 ± 0.23.

As for ACUGAGCAAUAUUACGAGAG, the “self-splicing fitness (ln)” value was -3.31 ± 0.18 (30 °C) and -3.34 ± 0.32 (37 °C). On the same counts, the results for UUAGAGCAAUAUUACGAGCG are -0.362 ± 0.17 and -0.824 ± 0.25.

In the case of UUUCAGCAAUAUUACGAAAA, the “self-splicing fitness (ln)” value reads like this: (30 °C) -1.02 ± 0.15; (37 °C) -0.793 ± 0.15. On the same counts, the results for GCUGAGCAAUAUUACGGUAC are -2.15 ± 0.22 and -2.77 ± 0.29.

In the case of UAAUAGCAAUAUUACGACCA, the “self-splicing fitness (ln)” value runs as follows: (30 °C) -0.451 ± 0.2; (37 °C) 0.216 ± 0.31. With UUGGAGCAAUAUUACGAGUU, the “self-splicing fitness (ln)” value was -4.04 ± 0.26 (30 °C) and -3.45 ± 0.34 (37 °C). On the same counts, the results for CAUGAGCAAUAUUACGGUUC are -3.65 ± 0.46 and -2.13 ± 0.38.

Take CUAAAGCAAUAUUACGUACG: the “self-splicing fitness (ln)” value (30 °C) was 0.59 ± 0.095 and the “self-splicing fitness (ln)” value (37 °C) turned out to be 0.0866 ± 0.099. As to CUCCAGCAAUAUUACGCAUG, the “self-splicing fitness (ln)” value runs as follows: (30 °C) -2.12 ± 0.08; (37 °C) -1.06 ± 0.074.

On to AGACAGCAAUAUUACGGUUU, for which the “self-splicing fitness (ln)” value is, setting by setting: (30 °C) -3.25 ± 0.11; (37 °C) -1.32 ± 0.082. Take CGUAAGCAAUAUUACGAAUU: the “self-splicing fitness (ln)” value was -3.76 ± 0.29 (30 °C) and -2.17 ± 0.21 (37 °C). On to CGAGAGCAAUAUUACGGAAG, for which the “self-splicing fitness (ln)” value reads like this: (30 °C) -3.57 ± 0.28; (37 °C) -2.54 ± 0.23.

With GGUAAGCAAUAUUACGGUAC, the “self-splicing fitness (ln)” value reads like this: (30 °C) -1.32 ± 0.08; (37 °C) -0.815 ± 0.13. On the same counts, the results for CUUGAGCAAUAUUACGAUAG are -2.67 ± 0.18 and -0.896 ± 0.2. On the same counts, the results for CCAAAGCAAUAUUACGAGGG are -3.76 ± 0.22 and -1.56 ± 0.16. On the same counts, the results for UAGGAGCAAUAUUACGUAGU are -3.13 ± 0.3 and -1.81 ± 0.3. As to ACCCAGCAAUAUUACGUUUG, the “self-splicing fitness (ln)” value by setting is: (30 °C) -4.2 ± 0.13; (37 °C) -2.44 ± 0.11. Regarding GUUAAGCAAUAUUACGAGAC, the “self-splicing fitness (ln)” value (37 °C) was -0.662 ± 0.25.

As for GCUCAGCAAUAUUACGCCAG, the “self-splicing fitness (ln)” value reads like this: (30 °C) -3.54 ± 0.26; (37 °C) -1.83 ± 0.3.

For the sequence AAUGAGCAAUAUUACGACCA, the “self-splicing fitness (ln)” value by setting is: (30 °C) -2.14 ± 0.24; (37 °C) -2.22 ± 0.37. As to CGGCAGCAAUAUUACGCCCC, the “self-splicing fitness (ln)” value is, setting by setting: (30 °C) -1.66 ± 0.31; (37 °C) -0.44 ± 0.36. On the same counts, the results for CUUCAGCAAUAUUACGCUGU are -3.69 ± 0.31 and -2.47 ± 0.42. As for CGCGAGCAAUAUUACGCAGC, the “self-splicing fitness (ln)” value was -3.62 ± 0.46 (30 °C) and -1.99 ± 0.34 (37 °C). On the same counts, the results for CUAGAGCAAUAUUACGAGCU are -3.73 ± 0.31 and -3.37 ± 0.28. As to GGCAAGCAAUAUUACGACAA, the “self-splicing fitness (ln)” value is -0.0702 ± 0.12 (30 °C) and -0.492 ± 0.13 (37 °C). On the same counts, the results for CCCGAGCAAUAUUACGAGAA are -3.69 ± 0.43 and -2.1 ± 0.34. On the same counts, the results for UCGUAGCAAUAUUACGAGAC are -1.72 ± 0.37 and -3.18 ± 0.37. On the same counts, the results for ACCGAGCAAUAUUACGUAAU are -3.19 ± 0.12 and -1.54 ± 0.13.

Turning to GCGGAGCAAUAUUACGGUUC, under “37 °C”, the “self-splicing fitness (ln)” value is -1.69 ± 0.4.

As for CCUGAGCAAUAUUACGAAAG, the “self-splicing fitness (ln)” value is, setting by setting: (30 °C) -2.39 ± 0.22; (37 °C) -2.08 ± 0.23. For UUACAGCAAUAUUACGAUUU, the “self-splicing fitness (ln)” value is, setting by setting: (30 °C) -1.09 ± 0.059; (37 °C) -0.22 ± 0.084. On the same counts, the results for CGAAAGCAAUAUUACGGUGA are -1.52 ± 0.084 and -0.808 ± 0.11.

For the sequence GCAGAGCAAUAUUACGCUGU, the “self-splicing fitness (ln)” value was -2.66 ± 0.18 (30 °C) and -2.87 ± 0.23 (37 °C).

Consider UAGCAGCAAUAUUACGACCC, for which the “self-splicing fitness (ln)” value (37 °C) is -0.938 ± 0.41. In the case of ACCUAGCAAUAUUACGAAAU, the “self-splicing fitness (ln)” value by setting is: (30 °C) -2.9 ± 0.16; (37 °C) -0.321 ± 0.15.

Take CUCUAGCAAUAUUACGUCUG: the “self-splicing fitness (ln)” value is, setting by setting: (30 °C) -2.34 ± 0.12; (37 °C) -2.27 ± 0.18.

The values are drawn from the supplement of paper PMC7877785.
